{"source": "paper PMC11615899", "about": "(The Journal of Biological Chemistry, 2024)", "proteins": {"B1": {"name": "F-BAR_(REMIND): the [70–347] region of TgREMIND with an N-terminal His-tag and five cysteines replaced (domain or fragment, Toxoplasma gondii, UniProt S8GLL7 70-347, looked up)", "chain": "APANATAENAFSFKEDLTSDWSLAVSRVDSGRTLLERLRAALLLRANAAVEQASKMESLVQTFVATNLESKTVMSAVNALRLEAVHQADHAREFAEAIRRDVVEGTLTNTIHNHYLVLQQIKADGSEAQKELTLATVDHQKAMHRYLRASKEAAAAAVKAQAAEGEAPNVRTELALSAIRRAVEAKAAEDEHRESVARLNAAAQANERKMAIILQSLQDMDEKRMLSFRDALRKAMVYQAAYLRNVQYDLEQTIKTVDAVDPMADLQEFLGKYRLPKK"}}, "biological_target": "the molecule itself", "experiment": "SEC", "data": [{"protein": "B1", "values": [{"measurement": "stoichiometry N", "result": 6}]}]}
